Source: patent publication US20240366776A1 (Hoffmann-La Roche, published 2024)

T1: biotinylated IL-2 receptor beta gamma heterodimer Fc (IL-2RBG; Acro ILG-H5254) (UniProt P14784 27-239; P31785 23-262, biotinylated)
T1 construct: bought heterodimer
T1 sequence (looked up) 1: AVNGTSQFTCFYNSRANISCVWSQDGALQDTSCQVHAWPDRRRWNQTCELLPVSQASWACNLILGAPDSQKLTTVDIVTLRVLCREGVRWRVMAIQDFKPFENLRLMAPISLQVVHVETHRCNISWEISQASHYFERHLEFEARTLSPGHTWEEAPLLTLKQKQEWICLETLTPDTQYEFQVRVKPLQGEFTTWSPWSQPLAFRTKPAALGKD
T1 sequence (looked up) 2: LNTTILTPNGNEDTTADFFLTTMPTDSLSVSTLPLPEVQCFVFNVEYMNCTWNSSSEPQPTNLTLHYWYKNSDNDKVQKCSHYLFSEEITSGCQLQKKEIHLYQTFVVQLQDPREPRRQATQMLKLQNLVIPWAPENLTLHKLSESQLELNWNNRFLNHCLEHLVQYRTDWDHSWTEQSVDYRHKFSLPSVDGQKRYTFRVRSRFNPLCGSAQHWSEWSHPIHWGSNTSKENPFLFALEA

B1: AF003947 (other)
heavy 1: APASSSTKKTQLQLEHLLLDLQMILNGINNYKNPKLTRMLTAKFAMPKKATELKHLQCLEEELKPLEEVLNGAQSKNFHLRPRDLISNINVIVLELKGSETTFMCEYADETATIVEFLNRWITFAQSIISTLTGGGGSGGGGSGGGGSGGGGSQVQLVQSGAEVKKPGASVKVSCKASGDTFTRYYVHWVRQAPGQGLEWMGIINPSGGYASYAQKFQGRVTMTRDTSTSTVYMELSSLRSEDTAVYYCAAGLFIWGQGTLVTVSSAKTTAPSVYPLAPVCGDTTGSSVTLGCLVKGYFPEPVTLTWNSGSLSSGVHTFPAVLQSDLYTLSSSVTVTSSTWPSQSITCNVAHPASSTKVDKKIEPRGPTIKPCPPCKCPAPNAAGGPSVFIFPPKIKDVLMISLSPIVTCVVVDVSEDDPDVQISWFVNNVEVHTAQTQTHREDYNSTLRVVSALPIQHQDWMSGKEFKCKVNNKDLGAPIERTISKPKGSVRAPQVYVLPPPEEEMTKKQVTLTCMVTDFMPEDIYVEWTNNGKTELNYKNTEPVLDSDGSYFMYSDLRVEKKNWVERNSYSCSVVHEGLHNHHTTESFSRTPGK
heavy 2: QVQLVQSGAEVKKPGASVKVSCKASGDTFTRYYVHWVRQAPGQGLEWMGIINPSGGYASYAQKFQGRVTMTRDTSTSTVYMELSSLRSEDTAVYYCAAGLFIWGQGTLVTVSSAKTTAPSVYPLAPVCGDTTGSSVTLGCLVKGYFPEPVTLTWNSGSLSSGVHTFPAVLQSDLYTLSSSVTVTSSTWPSQSITCNVAHPASSTKVDKKIEPRGPTIKPCPPCKCPAPNAAGGPSVFIFPPKIKDVLMISLSPIVTCVVVDVSEDDPDVQISWFVNNVEVHTAQTQTHREDYNSTLRVVSALPIQHQDWMSGKEFKCKVNNKDLGAPIERTISKPKGSVRAPQVYVLPPPEKEMTKKQVSLTCLVKDFMPEDIYVEWTNNGKTELNYKNTEPVLKSDGSYFMYSKLTVEKKNWVERNSYSCSVVHEGLHNHHTTKSFSRTPGGGGSGGGSHHHHHH
light: DIQMTQSPSSLSASVGDRVTITCRASQSIGRWLAWYQQKPGKAPKLLIYSASNLETGVPSRFSGSGSGTDFTLTISSLQPEDFATYYCQQYERFPVTFGPGTKVDIKRADAAPTVSIFPPSSEQLTSGGASVVCFLNNFYPKDINVKWKIDGSERQNGVLNSWTDQDSKDSTYSMSSTLTLTKDEYERHNSYTCEATHKTSTSPIVKSFNRNEC
notes: also called AF3947
B2: AF003740 (other)
heavy 1: APASSSTKKTQLQLEHLLLDLQMILNGINNYKNPKLTRMLTAKFAMPKKATELKHLQCLEEELKPLEEVLNGAQSKNFHLRPRDLISNINVIVLELKGSETTFMCEYADETATIVEFLNRWITFAQSIISTLTGGGGSGGGGSGGGGSGGGGSQVQLVQSGAEVKKPGASVKVSCKASGDTFTRYYVHWVRQAPGQGLEWMGIINPSGGYASYAQKFQGRVTMTRDTSTSTVYMELSSLRSEDTAVYYCAAGLFIWGQGTLVTVSSAKTTAPSVYPLAPVCGDTTGSSVTLGCLVKGYFPEPVTLTWNSGSLSSGVHTFPAVLQSDLYTLSSSVTVTSSTWPSQSITCNVAHPASSTKVDKKIEPRGPTIKPCPPCKCPAPNAAGGPSVFIFPPKIKDVLMISLSPIVTCVVVDVSEDDPDVQISWFVNNVEVHTAQTQTHREDYNSTLRVVSALPIQHQDWMSGKEFKCKVNNKDLGAPIERTISKPKGSVRAPQVYVLPPPEEEMTKKQVTLTCMVTDFMPEDIYVEWTNNGKTELNYKNTEPVLDSDGSYFMYSDLRVEKKNWVERNSYSCSVVHEGLHNHHTTESFSRTPGK
heavy 2: QVQLVQSGAEVKKPGASVKVSCKASGDTFTRYYVHWVRQAPGQGLEWMGIINPSGGYASYAQKFQGRVTMTRDTSTSTVYMELSSLRSEDTAVYYCAAGLFIWGQGTLVTVSSAKTTAPSVYPLAPVCGDTTGSSVTLGCLVKGYFPEPVTLTWNSGSLSSGVHTFPAVLQSDLYTLSSSVTVTSSTWPSQSITCNVAHPASSTKVDKKIEPRGPTIKPCPPCKCPAPNAAGGPSVFIFPPKIKDVLMISLSPIVTCVVVDVSEDDPDVQISWFVNNVEVHTAQTQTHREDYNSTLRVVSALPIQHQDWMSGKEFKCKVNNKDLGAPIERTISKPKGSVRAPQVYVLPPPEKEMTKKQVSLTCLVKDFMPEDIYVEWTNNGKTELNYKNTEPVLKSDGSYFMYSKLTVEKKNWVERNSYSCSVVHEGLHNHHTTKSFSRTPGK
light: DIQMTQSPSSLSASVGDRVTITCRASQSIGRWLAWYQQKPGKAPKLLIYSASNLETGVPSRFSGSGSGTDFTLTISSLQPEDFATYYCQQYNSFPVTFGPGTKVDIKRADAAPTVSIFPPSSEQLTSGGASVVCFLNNFYPKDINVKWKIDGSERQNGVLNSWTDQDSKDSTYSMSSTLTLTKDEYERHNSYTCEATHKTSTSPIVKSFNRNEC
notes: also called AF3740
B3: AF003232 (other)
heavy 1: APASSSTKKTQLQLEHLLLDLQMILNGINNYKNPKLTRMLTAKFAMPKKATELKHLQCLEEELKPLEEVLNGAQSKNFHLRPRDLISNINVIVLELKGSETTFMCEYADETATIVEFLNRWITFAQSIISTLTGGGGSGGGGSGGGGSGGGGSQVQLVQSGAEVKKPGASVKVSCKASGDTFTRHYVHWVRQAPGQGLEWMGIINPSGGYASYAQKFQGRVTMTRDTSTSTVYMELSSLRSEDTAVYYCAAGLFIWGQGTLVTVSSAKTTAPSVYPLAPVCGDTTGSSVTLGCLVKGYFPEPVTLTWNSGSLSSGVHTFPAVLQSDLYTLSSSVTVTSSTWPSQSITCNVAHPASSTKVDKKIEPRGPTIKPCPPCKCPAPNAAGGPSVFIFPPKIKDVLMISLSPIVTCVVVDVSEDDPDVQISWFVNNVEVHTAQTQTHREDYNSTLRVVSALPIQHQDWMSGKEFKCKVNNKDLGAPIERTISKPKGSVRAPQVYVLPPPEEEMTKKQVTLTCMVTDFMPEDIYVEWTNNGKTELNYKNTEPVLDSDGSYFMYSDLRVEKKNWVERNSYSCSVVHEGLHNHHTTESFSRTPGK
heavy 2: QVQLVQSGAEVKKPGASVKVSCKASGDTFTRHYVHWVRQAPGQGLEWMGIINPSGGYASYAQKFQGRVTMTRDTSTSTVYMELSSLRSEDTAVYYCAAGLFIWGQGTLVTVSSAKTTAPSVYPLAPVCGDTTGSSVTLGCLVKGYFPEPVTLTWNSGSLSSGVHTFPAVLQSDLYTLSSSVTVTSSTWPSQSITCNVAHPASSTKVDKKIEPRGPTIKPCPPCKCPAPNAAGGPSVFIFPPKIKDVLMISLSPIVTCVVVDVSEDDPDVQISWFVNNVEVHTAQTQTHREDYNSTLRVVSALPIQHQDWMSGKEFKCKVNNKDLGAPIERTISKPKGSVRAPQVYVLPPPEKEMTKKQVSLTCLVKDFMPEDIYVEWTNNGKTELNYKNTEPVLKSDGSYFMYSKLTVEKKNWVERNSYSCSVVHEGLHNHHTTKSFSRTPGGGGSGGGSHHHHHH
light: DIQMTQSPSSLSASVGDRVTITCRASQSIGRWLAWYQQKPGKAPKLLIYSASNLETGVPSRFSGSGSGTDFTLTISSLQPEDFATYYCQQYESFPVTFGPGTKVDIKRADAAPTVSIFPPSSEQLTSGGASVVCFLNNFYPKDINVKWKIDGSERQNGVLNSWTDQDSKDSTYSMSSTLTLTKDEYERHNSYTCEATHKTSTSPIVKSFNRNEC
notes: also called AF3232
B4: AF003945 (other)
heavy 1: APASSSTKKTQLQLEHLLLDLQMILNGINNYKNPKLTRMLTAKFAMPKKATELKHLQCLEEELKPLEEVLNGAQSKNFHLRPRDLISNINVIVLELKGSETTFMCEYADETATIVEFLNRWITFAQSIISTLTGGGGSGGGGSGGGGSGGGGSQVQLVQSGAEVKKPGASVKVSCKASGDTFTRYYVHWVRQAPGQGLEWMGIINPSGGYASYAQKFQGRVTMTRDTSTSTVYMELSSLRSEDTAVYYCAAGLFIWGQGTLVTVSSAKTTAPSVYPLAPVCGDTTGSSVTLGCLVKGYFPEPVTLTWNSGSLSSGVHTFPAVLQSDLYTLSSSVTVTSSTWPSQSITCNVAHPASSTKVDKKIEPRGPTIKPCPPCKCPAPNAAGGPSVFIFPPKIKDVLMISLSPIVTCVVVDVSEDDPDVQISWFVNNVEVHTAQTQTHREDYNSTLRVVSALPIQHQDWMSGKEFKCKVNNKDLGAPIERTISKPKGSVRAPQVYVLPPPEEEMTKKQVTLTCMVTDFMPEDIYVEWTNNGKTELNYKNTEPVLDSDGSYFMYSDLRVEKKNWVERNSYSCSVVHEGLHNHHTTESFSRTPGK
heavy 2: QVQLVQSGAEVKKPGASVKVSCKASGDTFTRYYVHWVRQAPGQGLEWMGIINPSGGYASYAQKFQGRVTMTRDTSTSTVYMELSSLRSEDTAVYYCAAGLFIWGQGTLVTVSSAKTTAPSVYPLAPVCGDTTGSSVTLGCLVKGYFPEPVTLTWNSGSLSSGVHTFPAVLQSDLYTLSSSVTVTSSTWPSQSITCNVAHPASSTKVDKKIEPRGPTIKPCPPCKCPAPNAAGGPSVFIFPPKIKDVLMISLSPIVTCVVVDVSEDDPDVQISWFVNNVEVHTAQTQTHREDYNSTLRVVSALPIQHQDWMSGKEFKCKVNNKDLGAPIERTISKPKGSVRAPQVYVLPPPEKEMTKKQVSLTCLVKDFMPEDIYVEWTNNGKTELNYKNTEPVLKSDGSYFMYSKLTVEKKNWVERNSYSCSVVHEGLHNHHTTKSFSRTPGGGGSGGGSHHHHHH
light: DIQMTQSPSSLSASVGDRVTITCRASQSIGSWLAWYQQKPGKAPKLLIYSASNLETGVPSRFSGSGSGTDFTLTISSLQPEDFATYYCQQYNSFPVTFGPGTKVDIKRADAAPTVSIFPPSSEQLTSGGASVVCFLNNFYPKDINVKWKIDGSERQNGVLNSWTDQDSKDSTYSMSSTLTLTKDEYERHNSYTCEATHKTSTSPIVKSFNRNEC
notes: also called AF3945

What follows are binders tested against T1, biotinylated IL-2 receptor beta gamma … (assay: ELISA, captured complex, biotin-IL-2RBG 10 nM, PD-1 Fc titrated).
Procedure: The DBA-cytokine complexes and control antibody-cytokine complexes were produced in two formats: (1) “Symmetric” immunocytokine (shown in FIG. 2E); or (2) “Asymmetric” immunocytokine (shown in FIG. 2B) by expression in mammalian cells and purified using standard protocols. […] To perform the assay, 384-well ELISA plates were coated with anti-Fc antibody at 1 micrograms/ml in 100 mM bicarbonate solution pH 9.0 overnight at 4° C. and washed twice with SUPERBLOCK™. Antibody-cytokine complexes were then added to each well at a constant concentration of 6 nM and allowed to incubate for 1 hour and washed three times in PBS plus 0.05% TWEEN® 20 (PBST). Titrated concentrations of PD-1 Fc or an IgG1 control Fc were added and allowed to incubate for 15 minutes before the addition of a constant amount of biotinylated IL-2RBG at 10 nM. The plates were incubated for an additional 30 minutes, washed and biotinylated IL-2RBG detection was performed using streptavidin-HRP and standard ELISA protocols.
B1: binds. B2: binds. B3: binds. B4: binds.
